Assay results from patent US10941182 (Amgen, dated 2021).
Starred links: 1 amine or outer side, 2 acyl side, 3 side chain; linkers in the order of their positions; H or OH if unused. Non-standard residues stand in square brackets, D forms with d. Primed or numbered codes have the meaning given here. *: point of attachment. NPipG = 2-(piperidin-4-ylamino)acetic acid, O=C(CN(C1CCN([*:3])CC1)[*:1])[*:2]; AC4Abu = α-carboxy-4-aminobutyric acid, O=C(C(CCN[*:1])C(=O)[*:3])[*:2]; Bip = N[C@@H](Cc1ccc(-c2ccccc2)cc1)C(=O)O; Oic = O=C(O)[C@@H]1C[C@@H]2CCCC[C@@H]2N1; Phe(4-Cl) = N[C@@H](Cc1ccc(Cl)cc1)C(=O)O; Phe(4-F) = N[C@@H](Cc1ccc(F)cc1)C(=O)O; γGlu = O=C(O)[C@H](CCC(=O)[*:2])N[*:1]; d(β3hF) = N[C@@H](CC(=O)O)Cc1ccccc1; Igl = N[C@H](C(=O)O)C1Cc2ccccc2C1; NMeR = CN[C@@H](CCCNC(=N)N)C(=O)O; Palmitoyl = CCCCCCCCCCCCCCCC(=O)*; hArg = N=C(N)NCCCC[C@H](N)C(=O)O; 3Pal = N[C@@H](Cc1cccnc1)C(=O)O; Cha = N[C@@H](CC1CCCCC1)C(=O)O; αMeL = CC(C)C[C@](C)(N)C(=O)O; αMeOrn = C[C@](N)(CCCN)C(=O)O; β3hP = O=C(O)C[C@@H]1CCCN1; αMeS = C[C@](N)(CO)C(=O)O; Nle = CCCC[C@H](N)C(=O)O; Dab = NCC[C@H](N)C(=O)O; Pip′ = not defined here; Dap = NC[C@H](N)C(=O)O; AEEA = NCCOCCOCC(=O)O; Aib = CC(C)(N)C(=O)O; BLeu = β-leucine; Sar = CNCC(=O)O

T1: human APJ receptor (human, UniProt P35414 1-380)
T1 sequence (looked up): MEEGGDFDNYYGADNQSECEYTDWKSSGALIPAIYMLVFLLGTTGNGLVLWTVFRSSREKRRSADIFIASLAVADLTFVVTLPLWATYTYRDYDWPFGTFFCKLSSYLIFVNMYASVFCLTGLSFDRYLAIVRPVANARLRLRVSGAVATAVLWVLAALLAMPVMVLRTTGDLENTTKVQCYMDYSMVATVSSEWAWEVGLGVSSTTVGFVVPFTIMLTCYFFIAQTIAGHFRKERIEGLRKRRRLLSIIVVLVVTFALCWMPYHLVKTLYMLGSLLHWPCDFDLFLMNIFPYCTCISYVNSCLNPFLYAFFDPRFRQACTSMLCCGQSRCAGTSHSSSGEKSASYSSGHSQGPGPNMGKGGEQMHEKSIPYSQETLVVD

T2: rat APJ receptor (rat, UniProt Q9JHG3 1-377)
T2 sequence (looked up): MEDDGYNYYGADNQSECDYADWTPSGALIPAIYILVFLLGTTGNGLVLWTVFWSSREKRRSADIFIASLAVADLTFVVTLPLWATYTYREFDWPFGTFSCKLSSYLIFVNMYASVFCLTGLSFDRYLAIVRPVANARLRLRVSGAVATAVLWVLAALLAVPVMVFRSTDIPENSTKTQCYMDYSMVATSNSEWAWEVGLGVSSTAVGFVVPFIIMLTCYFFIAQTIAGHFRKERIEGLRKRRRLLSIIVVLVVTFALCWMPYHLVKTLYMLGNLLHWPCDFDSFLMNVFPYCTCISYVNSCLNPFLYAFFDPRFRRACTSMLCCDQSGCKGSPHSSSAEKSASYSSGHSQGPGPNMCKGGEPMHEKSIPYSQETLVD


Key:
human APJ receptor = biological target: T1, human APJ receptor; assay: cell-based or functional assay
rat APJ receptor = biological target: T2, rat APJ receptor; assay: cell-based or functional assay

EC50 Human APJ Receptor (human APJ receptor) | EC50 Rat APJ Receptor (rat APJ receptor) | Binder
4.03 nM | 25.2 nM | Palmitoyl-[AC4Abu][AEEA][AEEA][dQ]RP[NMeR][αMeL]SH[Igl]G[Oic][Nle][β3hP][Phe(4-Cl)]-OH [SEQ ID NO: 640]
3.02 nM | 22 nM | Palmitoyl-[γGlu][AEEA][AEEA][dQ]RP[NMeR][αMeL]SH[NPipG]G[Oic][Nle][β3hP][Phe(4-Cl)]-OH (SMILES CCCCCCCCCCCCCCCC(=O)N[C@@H](CCC(=O)NCCOCCOCC(=O)NCCOCCOCC(=O)N[C@H](CCC(N)=O)C(=O)N[C@@H](CCCNC(=N)N)C(=O)N1CCC[C@H]1C(=O)N(C)[C@@H](CCCNC(=N)N)C(=O)N[C@@](C)(CC(C)C)C(=O)N[C@@H](CO)C(=O)N[C@@H](Cc1c[nH]cn1)C(=O)N(CC(=O)NCC(=O)N1[C@H](C(=O)N[C@@H](CCCC)C(=O)N2CCC[C@H]2CC(=O)N[C@@H](Cc2ccc(Cl)cc2)C(=O)O)C[C@@H]2CCCC[C@@H]21)C1CCNCC1)C(=O)O) [SEQ ID NO: 632]
2.45 nM | 5.3 nM | Palmitoyl-[γGlu][AEEA][AEEA][dQ]RP[NMeR][αMeL]S[Bip]KG[Oic][Nle][β3hP][Phe(4-Cl)]-OH (SMILES CCCCCCCCCCCCCCCC(=O)N[C@@H](CCC(=O)NCCOCCOCC(=O)NCCOCCOCC(=O)N[C@H](CCC(N)=O)C(=O)N[C@@H](CCCNC(=N)N)C(=O)N1CCC[C@H]1C(=O)N(C)[C@@H](CCCNC(=N)N)C(=O)N[C@@](C)(CC(C)C)C(=O)N[C@@H](CO)C(=O)N[C@@H](Cc1ccc(-c2ccccc2)cc1)C(=O)N[C@@H](CCCCN)C(=O)NCC(=O)N1[C@H](C(=O)N[C@@H](CCCC)C(=O)N2CCC[C@H]2CC(=O)N[C@@H](Cc2ccc(Cl)cc2)C(=O)O)C[C@@H]2CCCC[C@@H]21)C(=O)O) [SEQ ID NO: 629]
1.62 nM | 6.64 nM | Palmitoyl-[γGlu][AEEA][AEEA][dQ]RP[NMeR][αMeL]SH[αMeOrn]G[Oic][Nle][β3hP][Phe(4-Cl)]-OH (SMILES CCCCCCCCCCCCCCCC(=O)N[C@@H](CCC(=O)NCCOCCOCC(=O)NCCOCCOCC(=O)N[C@H](CCC(N)=O)C(=O)N[C@@H](CCCNC(=N)N)C(=O)N1CCC[C@H]1C(=O)N(C)[C@@H](CCCNC(=N)N)C(=O)N[C@@](C)(CC(C)C)C(=O)N[C@@H](CO)C(=O)N[C@@H](Cc1c[nH]cn1)C(=O)N[C@@](C)(CCCN)C(=O)NCC(=O)N1[C@H](C(=O)N[C@@H](CCCC)C(=O)N2CCC[C@H]2CC(=O)N[C@@H](Cc2ccc(Cl)cc2)C(=O)O)C[C@@H]2CCCC[C@@H]21)C(=O)O) [SEQ ID NO: 635]
4.05 nM | 14.2 nM | Palmitoyl-[γGlu][AEEA][AEEA][dQ]RP[NMeR][αMeL]SH[Phe(4-F)]G[Oic][Nle][β3hP][Phe(4-Cl)]-OH [SEQ ID NO: 637]
3.28 nM | 15.4 nM | Palmitoyl-[γGlu][AEEA][AEEA][dQ]RP[NMeR][αMeL]SH[Dap]G[Oic][Nle][β3hP][Phe(4-Cl)]-OH [SEQ ID NO: 639]
3.2 nM | 9.32 nM | Palmitoyl-[γGlu][AEEA][AEEA][dQ]RP[NMeR][αMeL]SH[Dab]G[Oic][Nle][β3hP][Phe(4-Cl)]-OH [SEQ ID NO: 638]
1.25 nM | 10.3 nM | Palmitoyl-[γGlu][AEEA][AEEA][dQ][hArg]P[dR][Cha]SHKG[Oic][Nle]P[d(β3hF)]-OH (SMILES CCCCCCCCCCCCCCCC(=O)N[C@@H](CCC(=O)NCCOCCOCC(=O)NCCOCCOCC(=O)N[C@H](CCC(N)=O)C(=O)N[C@@H](CCCCNC(=N)N)C(=O)N1CCC[C@H]1C(=O)N[C@H](CCCNC(=N)N)C(=O)N[C@@H](CC1CCCCC1)C(=O)N[C@@H](CO)C(=O)N[C@@H](Cc1c[nH]cn1)C(=O)N[C@@H](CCCCN)C(=O)NCC(=O)N1[C@H](C(=O)N[C@@H](CCCC)C(=O)N2CCC[C@H]2C(=O)N[C@@H](CC(=O)O)Cc2ccccc2)C[C@@H]2CCCC[C@@H]21)C(=O)O) [SEQ ID NO: 614]
0.27 nM | 0.994 nM | Palmitoyl-[AC4Abu][AEEA][AEEA][dQ][NPipG]P[NMeR][Cha]SHKG[Pip′][Nle][Aib][Phe(4-Cl)]-OH [SEQ ID NO: 646]
0.309 nM | 0.773 nM | Palmitoyl-[γGlu][AEEA][AEEA][dQ]RP[NMeR][αMeL][BLeu]HKG[Oic][Nle][β3hP][Phe(4-Cl)]-OH [SEQ ID NO: 628]
0.338 nM | 0.699 nM | Palmitoyl-[γGlu][AEEA][AEEA][dQ]RP[NMeR][αMeL]SHKG[Oic][Nle][β3hP][Phe(4-Cl)]-OH (not fully specified (residue 10)) [SEQ ID NO: 631]
1.59 nM | 3.65 nM | Palmitoyl-[γGlu][AEEA][AEEA][dQ]RP[NMeR][αMeL]SH[3Pal]G[Oic][Nle][β3hP][Phe(4-Cl)]-OH (SMILES CCCCCCCCCCCCCCCC(=O)N[C@@H](CCC(=O)NCCOCCOCC(=O)NCCOCCOCC(=O)N[C@H](CCC(N)=O)C(=O)N[C@@H](CCCNC(=N)N)C(=O)N1CCC[C@H]1C(=O)N(C)[C@@H](CCCNC(=N)N)C(=O)N[C@@](C)(CC(C)C)C(=O)N[C@@H](CO)C(=O)N[C@@H](Cc1c[nH]cn1)C(=O)N[C@@H](Cc1cccnc1)C(=O)NCC(=O)N1[C@H](C(=O)N[C@@H](CCCC)C(=O)N2CCC[C@H]2CC(=O)N[C@@H](Cc2ccc(Cl)cc2)C(=O)O)C[C@@H]2CCCC[C@@H]21)C(=O)O) [SEQ ID NO: 636]
0.244 nM | 0.641 nM | Palmitoyl-[γGlu][AEEA][AEEA][dQ]RP[NMeR][αMeL][αMeS]HKG[Oic][Nle][β3hP][Phe(4-Cl)]-OH (SMILES CCCCCCCCCCCCCCCC(=O)N[C@@H](CCC(=O)NCCOCCOCC(=O)NCCOCCOCC(=O)N[C@H](CCC(N)=O)C(=O)N[C@@H](CCCNC(=N)N)C(=O)N1CCC[C@H]1C(=O)N(C)[C@@H](CCCNC(=N)N)C(=O)N[C@@](C)(CC(C)C)C(=O)N[C@@](C)(CO)C(=O)N[C@@H](Cc1c[nH]cn1)C(=O)N[C@@H](CCCCN)C(=O)NCC(=O)N1[C@H](C(=O)N[C@@H](CCCC)C(=O)N2CCC[C@H]2CC(=O)N[C@@H](Cc2ccc(Cl)cc2)C(=O)O)C[C@@H]2CCCC[C@@H]21)C(=O)O) [SEQ ID NO: 627]
0.58 nM | 3.66 nM | Palmitoyl-[AC4Abu][AEEA][AEEA][dQ]RP[NMeR][αMeL]SHK[Sar][Oic][Nle][β3hP][Phe(4-Cl)]-OH [SEQ ID NO: 641]
